Reference: the supplement of paper PMC9170038

System: MS2 coat protein
Test: apparent KD of MS2 coat protein; designed switch direction (-1 OFF switch, 1 ON switch): -1; higher = weaker reporter binding
Summary of the method: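 SNAP-549-labelled MS2 coat protein was titrated, doubling from 0.7 or 1.5 nM to 3 µM, over designed RNA switches transcribed on Illumina chips by stalled E. coli RNA polymerase. Runs were done without input, with 200 uM small-molecule ligand, or with an oligonucleotide input. Apparent KD is the per-design median over clusters of curve-fitted normalised fluorescence.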

[1] = input ligand: microRNA oligo, concentration not stated
[2] = Eterna round: R95, input ligand: FMN 200 uM
[3] = Eterna round: R95, input ligand: microRNA oligo, concentration not stated
[4] = Eterna round: R95, input ligand: none

With “UUUAACAAGCCAGAUCCUCACAUGAGGAUCACCCAUGUGCUCGUCUGAUUUUGUACUAUCAUGUGAGUGAUAGUAUU [Level Boss var2-05] (Eterna round: R96, puzzle: Sensor v3, turn-off variant 1)” the “apparent KD of MS2 coat protein” value (input ligand: FMN 200 uM) was 360 nM, the “apparent KD of MS2 coat protein” value [1] was 39.1 nM and the “apparent KD of MS2 coat protein” value (input ligand: none) was 300 nM.
For “UUUAACAAGCCAGAUCCUCACAUGAGGAUCACCCAUGUGCUCGUCUGAUUUUGUACUAUCAUGUGAGUGAUAGUAUU [Level Boss var2-05] (puzzle: Sensor v3, turn-off variant 1)”, the “apparent KD of MS2 coat protein” value [2] was 165 nM, the “apparent KD of MS2 coat protein” value [3] was 15.2 nM and the “apparent KD of MS2 coat protein” value [4] was 181 nM.
In the case of “UUUAACAAGCCAGAUCCUCACAUGAGGAUCACCCAUGUGCUCGUCUGUUUUUGUACUAUCACGUUUGUGAUAGUGUU [Level Boss var2-08] (puzzle: Sensor v3, turn-off variant 1)”, the “apparent KD of MS2 coat protein” value [2] is reported as 220 nM, the “apparent KD of MS2 coat protein” value [3] is reported as 16.2 nM and the “apparent KD of MS2 coat protein” value [4] is reported as 295 nM.
In the case of “UUUAAGGUAAUUAAGAUCACAUGAGGAUCACCCAUGUAUAUAUAGGAUAUCAGCUCGUGUAGAGCUGAGAAGGAUAUAUACAUA [ExNG3/6-C3] (Eterna round: R96, puzzle: Exclusion NG 3)”, the “apparent KD of MS2 coat protein” value (input ligand: FMN 200 uM) is reported as 24.9 nM, the “apparent KD of MS2 coat protein” value [1] is reported as 48.3 nM and the “apparent KD of MS2 coat protein” value (input ligand: none) is reported as 542 nM.
With “UUUAAUUUAAUUAAGAUCACAUGAGGAUCACCCAUGUAAUUAUAGGAUAUCAGCUCGAAUAGAGCUGAGAAGGAUAAUUACAUA [ExNG3/5-A4] (Eterna round: R96, puzzle: Exclusion NG 3)” the “apparent KD of MS2 coat protein” value [1] was 67.6 nM.
With “UUUAAUUUAAUUAAGAUCACAUGAGGAUCACCCAUGUAUAUAUAGGAUAUCAGCUCGAAUAGAGCUGAGAAGGAUAUAUACAUA [ExNG3/4-A4] (Eterna round: R96, puzzle: Exclusion NG 3)” the “apparent KD of MS2 coat protein” value [1] was 39.4 nM.
With “UUUAAUUUUUUUUUUUUACAAGCUUUUUGCUCGUCUUAUACAUGAGGAUCACCCAUGUAAAUGGGAAAUGAAUUAUC [JMF 95] (puzzle: Sensor v3, turn-off variant 2)” the “apparent KD of MS2 coat protein” value [2] was 322 nM, the “apparent KD of MS2 coat protein” value [3] was 447 nM and the “apparent KD of MS2 coat protein” value [4] was 188 nM.
With “UUUAAUUUUUUUUUUUUACAAGCUUUUUGCUCGUCUUAUACAUGAGGAUCACCCAUGUAGGUGAAAGAUAAAUUAUC [JMF 4] (puzzle: Sensor v3, turn-off variant 2)” the “apparent KD of MS2 coat protein” value [2] was 31.5 nM, the “apparent KD of MS2 coat protein” value [3] was 77.5 nM and the “apparent KD of MS2 coat protein” value [4] was 33.5 nM.
With “UUUAAUUUUUUUUUUUUACAAGCUUUUUGCUCGUCUUAUACAUGAGGAUCACCCAUGUAGGUGAGAAGUAAAUUAUC [JMF 49] (puzzle: Sensor v3, turn-off variant 2)” the “apparent KD of MS2 coat protein” value [2] was 19.3 nM, the “apparent KD of MS2 coat protein” value [3] was 168 nM and the “apparent KD of MS2 coat protein” value [4] was 23.3 nM.
With “UUUAAUUUUUUUUUUUUACAAGCUUUUUGCUCGUCUUAUACAUGAGGAUCACCCAUGUGAGUGGGAAAUGAAUUAUC [JMF 100] (puzzle: Sensor v3, turn-off variant 2)” the “apparent KD of MS2 coat protein” value [2] was 99 nM, the “apparent KD of MS2 coat protein” value [3] was 218 nM and the “apparent KD of MS2 coat protein” value [4] was 111 nM.
With “UUUAAUUUUUUUUUUUUACAAGCUUUUUGCUCGUCUUAUACAUGAGGAUCACCCAUGUGGAUGGGAAGUAAAUUAUC [JMF 52] (puzzle: Sensor v3, turn-off variant 2)” the “apparent KD of MS2 coat protein” value [2] was 23.9 nM, the “apparent KD of MS2 coat protein” value [3] was 59.2 nM and the “apparent KD of MS2 coat protein” value [4] was 20.9 nM.
With “UUUAAUUUUUUUUUUUUACAAGCUUUUUGCUCGUCUUAUACAUGAGGAUCACCCAUGUGGGUGAGAAAUGAAUUAUC [JMF 93] (puzzle: Sensor v3, turn-off variant 2)” the “apparent KD of MS2 coat protein” value [2] was 59.9 nM, the “apparent KD of MS2 coat protein” value [3] was 10.2 nM and the “apparent KD of MS2 coat protein” value [4] was 76.8 nM.
In the case of “UUUACAAGCUAAAGAUCCCACAUGAGGAUCACCCAUGUUGCUGCCGGUGACGGUAGCAUAACUUUUGCUCGUCUUAU [JL TOV1 3.59] (Eterna round: R97, puzzle: Sensor, turn-off variant 1)”, the “apparent KD of MS2 coat protein” value (input ligand: FMN 200 uM) is reported as 278 nM and the “apparent KD of MS2 coat protein” value (input ligand: none) is reported as 342 nM.
In the case of “UUUACAAGCUAAUGAUCCCACAUGAGGAUCACCCAUGUUGCUGCCGUGAGGUAGCUUUUAACAUUUGCUCGUCUUAU [JL TOV1 3.40] (Eterna round: R97, puzzle: Sensor, turn-off variant 1)”, the “apparent KD of MS2 coat protein” value (input ligand: FMN 200 uM) is reported as 733 nM and the “apparent KD of MS2 coat protein” value (input ligand: none) is reported as 1060 nM.
For “UUUACAAGCUAUAGAUCCCACAUGAGGAUCACCCAUGUAGCUGCCAACGGUAGCUUUUUAUGGUUUGCUCGUCUUAU [JL TOV1 3.34] (Eterna round: R97, puzzle: Sensor, turn-off variant 1)”, the “apparent KD of MS2 coat protein” value (input ligand: FMN 200 uM) was 424 nM and the “apparent KD of MS2 coat protein” value (input ligand: none) was 1210 nM.
